Reference: publication PMC5175346

Assays:
Assay in all cases: fluorescence anisotropy
PriA Q330A = PriA Q330A (Escherichia coli, UniProt P17888 1-732, Q330A)
PriA W333A = PriA W333A (Escherichia coli, UniProt P17888 1-732, W333A)
PriA Y335A = PriA Y335A (Escherichia coli, UniProt P17888 1-732, Y335A)
PriA K328A = PriA K328A (Escherichia coli, UniProt P17888 1-732, K328A)
PriA Q329A = PriA Q329A (Escherichia coli, UniProt P17888 1-732, Q329A)
PriA R334A = PriA R334A (Escherichia coli, UniProt P17888 1-732, R334A)
PriA wt = PriA wt (Escherichia coli, UniProt P17888 1-732)

Measured: binding result

B1: two-stranded fork, structure #1 (1b-98/3L-98) (structured_DNA)
DNA 1: GCAAGCCTTCTACAGGTCGACCGTCCATGGCGACTCGAGACCGCAATACGGATAAGGGCTGAGCACGCCGACGAACATTCACCACGCCAGACCACGTA
DNA 2: GACTATCTACGTCCGAGGCTCGCGCCGCAGACTCATTTAGCCCTTATCCGTATTGCGGTCTCGAGTCGCCATGGACGGTCGACCTGTAGAAGGCTTGC
binds: all assays above
